Test results: patent publication US20230174626A1 (GlaxoSmithKline, published 2023)

Experiments:
[1] = biological target: ULs (UL128, UL130, UL131A of the HCMV Pentamer) on TB40 virus (Human Cytomegalovirus (HCMV), TB40 virus); assay: cell-based or functional assay
[2] = biological target: HCMV glycoprotein H (gH) on TB40 virus (Human Cytomegalovirus (HCMV), TB40 virus); assay: cell-based or functional assay

B1: humanized 26B6 mAb (antibody, human IgG1, kappa, V domains shown)
VH: EVQLVESGGGLVKPGGSLKLSCAASGFTITDYYIYWLRQTPEKKLEWVAAISDGGRYTDYPDSVKGRFTMSSDNAKTNLYLQMGSLQSDDTGMYYCARWASYGYHWYFDVWGAGTTVTVSS
VL: DIQMTQTTSSLSASLGDRVTISCSASQDISNYINWYQQKRDGTVKLLIYDSSSLHSGVPSRFSGSGSGTDYSLTISNLEPEDFATYFCQQYSNLPPTFGGGTNLEIKR
- IC50 (µg/ml), HCMV TB40 neutralization on ARPE-19 epithelial cells [1]: 0.00407 µg/mL
- IC50 (µg/ml), HCMV TB40 neutralization on MRC-5 fibroblasts [1]: > 10 µg/mL

B2: humanized 23C2 mAb (antibody, human IgG1, kappa, V domains shown)
VH: DVQLQESGPGLVKPSQSLSLTCSVTGYSIKSGYYWNWIRQFPGNKLEWMGYISYGGDFTYNPSLKNRISITRDTSKNQFFLKLNSVTTEDTATYFCVREPNWESYFDIWGAGTTVTVSS
VL: DIQMTQSPASLSASVGETVTITCRASDNIYSYLTWYHQKQGKSPHLLVYNAKTLPEGVPLRFSGTGSGTQFSLKINSLQPEDFGIYFCLHDYGFPRTFGGGTILEVKR
- IC50 (µg/ml), HCMV TB40 neutralization on ARPE-19 epithelial cells [1]: 0.0031 µg/mL
- IC50 (µg/ml), HCMV TB40 neutralization on MRC-5 fibroblasts [1]: > 10 µg/mL

B3: humanized 2C7 mAb (antibody, human IgG1, kappa, V domains shown)
VH: EVQLQQSGPELEKPGASVKISCKASGYSFTGYNMNWVKQSNGKSLEWIGNIDPYFGGTSYNQKFKGKATLTVDKSSSTAYMELKSLTSEDSAVYYCARHYGYFPWFAYWGQGTLVTVSA
VL: DIVLTQSPASLAVSLGQRATISCRASESVDSSGNSFMHWYQQKPGQPPKLLIYRASNLESGIPARFSGSGSRTDFTLTINPVGADDVATYYCQQSNEDPWTFGGGTKLEIKR
- IC50 (µg/ml), HCMV TB40 neutralization on ARPE-19 epithelial cells [2]: 0.0915 µg/mL
- IC50 (µg/ml), HCMV TB40 neutralization on MRC-5 fibroblasts [2]: 0.53 µg/mL
